Test results as given in US20150376243A1, “Use of AXMI184 for the Control of Rootworm Insects” (ATHENIX CORP., priority 2013, published 2015).

How the values were obtained:
[1] = system: western corn rootworm (Diabrotica virgifera); experiment: Root damage in T0 transgenic maize in root-trainer containers infested with western corn rootworm eggs (CRWNIS); format: in vivo; details: T0 maize plants containing optAxmi184 and expressing detectable AXMI184; ~125 non-diapausing eggs per plant; assessed after fifteen days; versus control plants infested in the same manner; FIG. 1
From the text: Transgenic maize plants transformed with an optimized version of Axmi184 (optAxmi184, set forth herein as SEQ ID NO:2) were obtained by Agrobacterium-mediated transformation. Plants shown by PCR analysis to contain the appropriate Axmi184 construct were selected, and transferred to root trainer containers.
T0 plants containing optAxmi184 were transplanted to root-trainer containers and propagated for approximately three weeks. Individual plants were then each infested with ˜125 non-diapausing western corn rootworm (Diabrotica virgifera) eggs. Plants were analyzed for expression of AXMI184 protein by Western blot analysis using an anti-AXMI184 antibody. Plants expressing detectable amounts of AXMI184 were selected for analysis. After fifteen days, the amount of root damage in each plant was assessed using the Node Injury Scale (CRWNIS) (Oleson et al. 2005. J. Econ Entomol. 98(1): 1-8), where 0.00 is no injury and 3.00 is all roots pruned to within 1.5 inches of the stalk on three entire nodes.

western corn rootworm = experiment: Field trial of T1 maize plants, corn rootworm root injury (CRWNIS); format: in vivo, Diabrotica virgifera; details: two locations in Iowa; 750 non-diapausing western corn rootworm eggs per plant; scale 0.00 no injury to 3.00 three entire nodes pruned
Description: T1 plants expressing optAxmi184 were tested at two locations in Iowa. Each experimental unit consisted of a one-row plot of maize measuring approximately 15 feet. Plots were arranged using a randomized complete block design with four replications. Efficacy against western corn rootworm was determined by evaluating up to eight maize roots per plot. Inbreds B110 and B116, a CRW-susceptible commercial hybrid, and two CRW control standards: B110 with a standard granular insecticide (FORCE® 3G), and B110 with an insecticidal seed treatment (PONCHO® 1250) were used as controls.
Fields were prepared for this study using cultural practices similar to those used in commercial maize fields in Iowa. Plants not containing transgenic events for CRW control were identified and excluded from the study using an application of 16 oz/A of glyphosate when plants were at the V1 leaf stage. Five to ten days later, the number of positive and negative plants in each plot was recorded. Negative plants were then removed and the remaining positive plants were thinned to 8 plants per row. All plants were then manually infested with non-diapausing western corn rootworm eggs. The eggs were suspended in a dilute agar solution and calibrated to deliver 750 eggs per plant for all plots.
Roots were dug, washed and evaluated for CRW injury after a period of larval feeding. […]

B1: AXMI184: Pesticidal protein SEQ ID NO:3 from Bacillus thuringiensis strain ATX14775; expressed in maize from optimized gene optAxmi184 (SEQ ID NO:2) (protein, listed as Bacillus thuringiensis)
chain: MNMNKNNTKLSARALPSFIDYFNGIYGFATGIKDIMNMIFKTDTGGDLTLDEILKNQQLLNDISGKLDGVNGSLNDLIAQGNLNTELSKEILKIANEQNQVLNDVNNKLDAINTMLHVYLPKITSMLSDVMKPNYALSMQIEYLSRQLQEISDKLDIINVNVLINSTLTEITPAYQWIKYVNEKFEELTFATETTLKVKNDSASADILDELTELTELAKSVTKNDVDGFEFYLNTFHDVMVGNNLFGRSTLKTASELIAKENVKTSGSEVGNVYNFLVVLTALQAKAFLTLTTCRKLLGLADIDYTSIMNEHLNKEKEEFRVNILPILSNTFSNPNYAKVKGSDEDAKMIVEAKPGHALVGFEISNDSMTVLKVYEAKLKQNYQVDKDSLSEVIYGDMDKLLCPDQSEKIYYTNNIVFPNEYVITKIDFTKKMKTLRYEVTANSYDSSTGEIDLNKKKVESSKAEYRTLSANNDGVYMPLGVISETFLTPINGFGLQADENSRLITLTCKSYLRELLLATDLSNKETKLIVPPNSFISNIVENGSIEEGHLEPWKANNKNAYVDHTGGVNGTKALYVHEDGGVSQFMGDKLKPKTEYVIQYTVKGKPSIHLKDENTGYILYEDTNNDLEDFQTITKRFTTGTDLMRVYLILKSQSGHEAWGDNFTILEIKPAEALVSPELINPNSWITTQGASISGDKLFISLGTNGTFRQNLSLNSYSTYSISFTASGPFNVTVRNSREVLYERNNLMSSTSHISGEFKTESNNTGLYVELSRRSGGAGHISFENISIK
In the case of B1, the “amount of root damage, Node Injury Scale (CRWNIS)” value [1] is reported as “lower root damage than control plants” and the “Average CRWNIS” value (western corn rootworm) is reported as 0.12.
